According to IntAct's records for PubMed 19632993:

B1: Chromosomal replication initiator protein DnaA (Escherichia coli (strain K12)), P03004 (parent)
chain: MSLSLWQQCLARLQDELPATEFSMWIRPLQAELSDNTLALYAPNRFVLDWVRDKYLNNINGLLTSFCGADAPQLRFEVGTKPVTQTPQAAVTSNVAAPAQVAQTQPQRAAPSTRSGWDNVPAPAEPTYRSNVNVKHTFDNFVEGKSNQLARAAARQVADNPGGAYNPLFLYGGTGLGKTHLLHAVGNGIMARKPNAKVVYMHSERFVQDMVKALQNNAIEEFKRYYRSVDALLIDDIQFFANKERSQEEFFHTFNALLEGNQQIILTSDRYPKEINGVEDRLKSRFGWGLTVAIEPPELETRVAILMKKADENDIRLPGEVAFFIAKRLRSNVRELEGALNRVIANANFTGRAITIDFVREALRDLLALQEKLVTIDNIQKTVAEYYKIKVADLLSKRRSRSVARPRQMAMALAKELTNHSLPEIGDAFGGRDHTTVLHACRKIEQLREESHDIKEDFSNLIRTLSS
partner: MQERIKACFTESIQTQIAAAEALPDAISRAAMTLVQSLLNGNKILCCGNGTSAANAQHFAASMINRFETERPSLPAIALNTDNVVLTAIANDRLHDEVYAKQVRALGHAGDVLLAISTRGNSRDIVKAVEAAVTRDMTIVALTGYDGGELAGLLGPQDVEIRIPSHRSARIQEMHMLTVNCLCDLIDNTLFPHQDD

Variants of: B1
Settings: with diaa_ecoli diaA

Variant	effect of a mutation on the interaction
MSLSLWQQCLARLQDELPATAFSMWIRPLQAELSDNTLALYAPNRFVLDWVRDKYLNNINGLLTSFCGADAPQLRFEVGTKPVTQTPQAAVTSNVAAPAQVAQTQPQRAAPSTRSGWDNVPAPAEPTYRSNVNVKHTFDNFVEGKSNQLARAAARQVADNPGGAYNPLFLYGGTGLGKTHLLHAVGNGIMARKPNAKVVYMHSERFVQDMVKALQNNAIEEFKRYYRSVDALLIDDIQFFANKERSQEEFFHTFNALLEGNQQIILTSDRYPKEINGVEDRLKSRFGWGLTVAIEPPELETRVAILMKKADENDIRLPGEVAFFIAKRLRSNVRELEGALNRVIANANFTGRAITIDFVREALRDLLALQEKLVTIDNIQKTVAEYYKIKVADLLSKRRSRSVARPRQMAMALAKELTNHSLPEIGDAFGGRDHTTVLHACRKIEQLREESHDIKEDFSNLIRTLSS [E21A]	decreasing interaction
MSLSLWQQCLARLQDELPATEFSMWIRPLQAELSDNTLALYAPNRAVLDWVRDKYLNNINGLLTSFCGADAPQLRFEVGTKPVTQTPQAAVTSNVAAPAQVAQTQPQRAAPSTRSGWDNVPAPAEPTYRSNVNVKHTFDNFVEGKSNQLARAAARQVADNPGGAYNPLFLYGGTGLGKTHLLHAVGNGIMARKPNAKVVYMHSERFVQDMVKALQNNAIEEFKRYYRSVDALLIDDIQFFANKERSQEEFFHTFNALLEGNQQIILTSDRYPKEINGVEDRLKSRFGWGLTVAIEPPELETRVAILMKKADENDIRLPGEVAFFIAKRLRSNVRELEGALNRVIANANFTGRAITIDFVREALRDLLALQEKLVTIDNIQKTVAEYYKIKVADLLSKRRSRSVARPRQMAMALAKELTNHSLPEIGDAFGGRDHTTVLHACRKIEQLREESHDIKEDFSNLIRTLSS [F46A]	disrupting interaction
